B1: ELF3 (parent)
chain: RLVYKFGKNSSGWKEEEVLQSRN

Variants of: B1
Assay: protein stability index of a GFP-peptide fusion (GPS, HEK-293T) (PSI 1-6); higher = more stable
Conditions: c terminus: native
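Note: lentivirally expressed fusions sorted by FACS into six bins by GFP to DsRed ratio, PSI derived from sequencing read proportions per bin multiplied by bin number.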

| Variant | protein stability index |
| --- | --- |
| RLVYKFGKNSSGWKEEEVCQSRN [L19C] | 2.33 |
| RLVYKFGKNSSGWKEEEVRQSRN [L19R] | 2.51 |
| RLVYKFGKNSSGWKEEEVEQSRN [L19E] | 4.05 |
| RLVYKFGKNSSGWKEEEVNQSRN [L19N] | 3.65 |
| RLVYKFGKNSSGWKEEEVAQSRN [L19A] | 3.3 |
| RLVYKFGKNGSGWKEEEVLQSRN [S10G] | 2.11 |
| RLVYKFGKNMSGWKEEEVLQSRN [S10M] | 1.9 |
| RLVYKFGKNHSGWKEEEVLQSRN [S10H] | 2.56 |
| RLVYKFGKNQSGWKEEEVLQSRN [S10Q] | 2.51 |
| RLVYKFGKNRSGWKEEEVLQSRN [S10R] | 1.18 |
| RLVYKFGKNNSGWKEEEVLQSRN [S10N] | 2.1 |
| RLVYKFGKNSSGWKEKEVLQSRN [E16K] | 2.46 |
| RLVYKFGKNSSGWKEEEVLASRN [Q20A] | 1.89 |
| RLVYKFGKNSSGWKEEEVLCSRN [Q20C] | 2.22 |
| RLVYKFEKNSSGWKEEEVLQSRN [G7E] | 2.94 |
| RLVYKFPKNSSGWKEEEVLQSRN [G7P] | 2.31 |
| RLVYKFMKNSSGWKEEEVLQSRN [G7M] | 1.81 |
| RLVYKFQKNSSGWKEEEVLQSRN [G7Q] | 2.5 |
| RLVYKFAKNSSGWKEEEVLQSRN [G7A] | 1.89 |
| RLVNKFGKNSSGWKEEEVLQSRN [Y4N] | 3.13 |
| RLVAKFGKNSSGWKEEEVLQSRN [Y4A] | 3.39 |
| RLVTKFGKNSSGWKEEEVLQSRN [Y4T] | 3.06 |
| RLVIKFGKNSSGWKEEEVLQSRN [Y4I] | 2.12 |
| RLVYKFGKYSSGWKEEEVLQSRN [N9Y] | 1.25 |

| Variant | protein stability index |
| --- | --- |
| RLVYKFGKQSSGWKEEEVLQSRN [N9Q] | 1.87 |
| RLTYKFGKNSSGWKEEEVLQSRN [V3T] | 2.86 |
| RLCYKFGKNSSGWKEEEVLQSRN [V3C] | 1.71 |
| RLLYKFGKNSSGWKEEEVLQSRN [V3L] | 1.9 |
| RLVYKFGKNSSGWKEETVLQSRN [E17T] | 1.51 |
| RLVYKFGKNSSGWKEEYVLQSRN [E17Y] | 2.98 |
| RLVYKFGKNSSGWKEEIVLQSRN [E17I] | 2.02 |
| RLVYKFGKNSSGWKEECVLQSRN [E17C] | 2.62 |
| RLVYKFGKNSSGWKEESVLQSRN [E17S] | 1.13 |
| RLVYKFGKNSSGWKEEQVLQSRN [E17Q] | 2.09 |
| RLVYTFGKNSSGWKEEEVLQSRN [K5T] | 2.14 |
| RLVYLFGKNSSGWKEEEVLQSRN [K5L] | 2.75 |
| RLVYQFGKNSSGWKEEEVLQSRN [K5Q] | 2.09 |
| RLVYRFGKNSSGWKEEEVLQSRN [K5R] | 1.05 |
| RLVYVFGKNSSGWKEEEVLQSRN [K5V] | 1.95 |
| RLVYNFGKNSSGWKEEEVLQSRN [K5N] | 2.39 |
| RLVYKFGKNSSGWDEEEVLQSRN [K14D] | 3.25 |
| RLVYKFGKNSSGWNEEEVLQSRN [K14N] | 1.92 |
| RLVYKFGKNSSGWFEEEVLQSRN [K14F] | 2.49 |
| RLVYKFGKNSSGWYEEEVLQSRN [K14Y] | 2.28 |
| RLVYKFGKNSSGWIEEEVLQSRN [K14I] | 2.25 |
| RLVYKFGKNSSGWVEEEVLQSRN [K14V] | 2.25 |
| RLVYKFGKNSSGWAEEEVLQSRN [K14A] | 2.02 |
| RLVYKFGKNSSGWKDEEVLQSRN [E15D] | 1.9 |

| Variant | protein stability index |
| --- | --- |
| RLVYKFGKNSSGWKHEEVLQSRN [E15H] | 2.81 |
| RLVYKFGKNSSGWKFEEVLQSRN [E15F] | 3 |
| RFVYKFGKNSSGWKEEEVLQSRN [L2F] | 2.79 |
| RKVYKFGKNSSGWKEEEVLQSRN [L2K] | 2.31 |
| RYVYKFGKNSSGWKEEEVLQSRN [L2Y] | 1.85 |
| RSVYKFGKNSSGWKEEEVLQSRN [L2S] | 2.93 |
| RLVYKFGKNSSGWKEEEMLQSRN [V18M] | 1.84 |
| RLVYKFGKNSSGWKEEESLQSRN [V18S] | 2.68 |
| RLVYKFGKNSSGWKEEEPLQSRN [V18P] | 2.81 |
| RLVYKFGKNSSGWKEEEKLQSRN [V18K] | 2.94 |
| RLVYKFGKNSSGWKEEEVLQPRN [S21P] | 3.39 |
| RLVYKFGKNSSGWKEEEVLQARN [S21A] | 2.12 |
| RLVYKFGKNSSGWKEEEVLQVRN [S21V] | 1.82 |
| RLVYKFGKNSSGWKEEEVLQTRN [S21T] | 2.1 |
| RLVYKFGKNSSGWKEEEVLQNRN [S21N] | 2.49 |
| RLVYKFGCNSSGWKEEEVLQSRN [K8C] | 2.85 |
| RLVYKFGGNSSGWKEEEVLQSRN [K8G] | 2.49 |
| RLVYKFGNNSSGWKEEEVLQSRN [K8N] | 2.46 |
| RLVYKFGSNSSGWKEEEVLQSRN [K8S] | 2.44 |
| RLVYKFGTNSSGWKEEEVLQSRN [K8T] | 2.62 |
| RLVYKFGENSSGWKEEEVLQSRN [K8E] | 2.97 |
| RLVYKFGKNSSGWKEEEVLQSPN [R22P] | 3.62 |
| RLVYKFGKNSSGWKEEEVLQSSN [R22S] | 2.92 |
| RLVYKFGKNSSGWKEEEVLQSFN [R22F] | 3.01 |

| Variant | protein stability index |
| --- | --- |
| RLVYKFGKNSSGWKEEEVLQSMN [R22M] | 2.72 |
| RLVYKFGKNSSGWKEEEVLQSIN [R22I] | 3.42 |
| RLVYKSGKNSSGWKEEEVLQSRN [F6S] | 3.28 |
| RLVYKKGKNSSGWKEEEVLQSRN [F6K] | 3.53 |
| RLVYKHGKNSSGWKEEEVLQSRN [F6H] | 3.29 |
| RLVYKYGKNSSGWKEEEVLQSRN [F6Y] | 2.45 |
| RLVYKNGKNSSGWKEEEVLQSRN [F6N] | 3.65 |
| RLVYKAGKNSSGWKEEEVLQSRN [F6A] | 3.69 |
| RLVYKDGKNSSGWKEEEVLQSRN [F6D] | 4.7 |
| PLVYKFGKNSSGWKEEEVLQSRN [R1P] | 3.7 |
| HLVYKFGKNSSGWKEEEVLQSRN [R1H] | 2.72 |
| CLVYKFGKNSSGWKEEEVLQSRN [R1C] | 2.32 |
| LLVYKFGKNSSGWKEEEVLQSRN [R1L] | 1.83 |
| RLVYKFGKNSSAWKEEEVLQSRN [G12A] | 2.37 |
| RLVYKFGKNSSLWKEEEVLQSRN [G12L] | 3.23 |
| RLVYKFGKNSSHWKEEEVLQSRN [G12H] | 2.02 |
| RLVYKFGKNSSCWKEEEVLQSRN [G12C] | 2.05 |
| RLVYKFGKNSSKWKEEEVLQSRN [G12K] | 1.69 |
| RLVYKFGKNSSEWKEEEVLQSRN [G12E] | 2.98 |
| RLVYKFGKNSCGWKEEEVLQSRN [S11C] | 1.84 |
| RLVYKFGKNSIGWKEEEVLQSRN [S11I] | 1.54 |
| RLVYKFGKNSEGWKEEEVLQSRN [S11E] | 3.01 |
| RLVYKFGKNSNGWKEEEVLQSRN [S11N] | 1.89 |
